Results as given in paper PMC4720780, “Fruit Ripening Regulation of α-Mannosidase Expression by the MADS Box Transcription Factor RIPENING INHIBITOR and Ethylene”.

Molecular target: RIN (RIPENING INHIBITOR, MADS box) (Solanum lycopersicum, UniProt Q8S4L4 1-242)
Assay: EMSA; 10 mM MgCl2; 20 mM HEPES pH 7.5, 20% glycerol, 0.05 ug poly(dI-dC), 10 mM MgCl2, 2.5 mM EDTA, 2.5 mM DTT, 25 mM NaCl, 25 C, 30 min; 6% native PAGE 0.5x TBE
Details: protein: recombinant; chain copies: 2; label: 32P (alpha-32P dCTP Klenow fill-in); filled-in ends

Sequence of RIN (RIPENING INHIBITOR, MADS box) (Q8S4L4 entry or part of it): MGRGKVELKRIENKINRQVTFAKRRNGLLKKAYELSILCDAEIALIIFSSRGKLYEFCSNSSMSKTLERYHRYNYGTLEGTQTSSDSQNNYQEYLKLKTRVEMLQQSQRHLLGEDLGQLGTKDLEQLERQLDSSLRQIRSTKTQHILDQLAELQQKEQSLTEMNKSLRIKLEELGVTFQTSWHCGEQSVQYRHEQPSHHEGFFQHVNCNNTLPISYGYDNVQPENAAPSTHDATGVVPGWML

B1: alpha-Man promoter fragment MD4 (187 bp) (dsDNA)
DNA 1: GAAGACTTCACAAATCTTGATTTTTGAATACGACCCTTTAGTATTAAGTTTTCCAATTAATCTTGTAGGTCCATTGGCTTTGATTCCCTTTCTTGATTTATCTACAAAAATTTAGGCTATTTATAGAGATTTGGGGTTTATGGTTTAGTACATTCTCTTTCAGTGAACACTCTCAGCAATGGTGGAA
DNA 2: TTCCACCATTGCTGAGAGTGTTCACTGAAAGAGAATGTACTAAACCATAAACCCCAAATCTCTATAAATAGCCTAAATTTTTGTAGATAAATCAAGAAAGGGAATCAAAGCCAATGGACCTACAAGATTAATTGGAAAACTTAATACTAAAGGGTCGTATTCAAAAATCAAGATTTGTGAAGTCTTC
  binding result: binds
